Results taken from the DeepSol protein solubility set.

Test: soluble on expression in E. coli; label from the status in PepcDB or PDB records

| Sequence | soluble on expression in E. coli |
| --- | --- |
| MAIDYSKWDKIELSDDSDVEVHPNVDKKSFIKWKQQSIHEQRFKRNQDIKNLETQVDMYSHLNKRVDRILSNLPESSLTDLPAVTKFLNANFDKMEKSKGENVDPEIATYNEMVEDLFEQLAKDLDKEGKDSKSPSLIRDAILKHRAKIDSVTVEAKKKLDELYKEKNAHISSEDIHTGFDSSFMNKQKGGAKPLEATPSEALSSAAESNILNKLAKSSVPQTFIDFKDDPMKLAKETEEFGKISINEYSKSQKFLLEHLPIISEQQKDALMMKAFEYQLHGDDKMTLQVIHQSELMAYIKEIYDMKKIPYLNPMELSNVINMFFEKVIFNKDKPMGKESFLRSVQEKFLHIQKRSKILQQEEMDESNAEGVETIQLKSLDDSTELEVNLPDFNSKDPEEMKKVKVFKTLIPEKMQEAIMTKNLDNINKVFEDIPIEEAEKLLEVFNDIDIIGIKAILENEKDFQSLKDQYEQDHEDATMENLSLNDRDGGGDNHEEVKHTADTVD | soluble |
| NKDFQWDFSLNWSKSVKKLTEIYGGQKKFGDLKVGDRADAFYGSQWQKSADGELILDENGMPTKDAYKQYLGHLDPNFRMGMQNTFRYKDFTLSVDLDGAYKGVIYSVLSEKLWWGGKHPESVEYRDAQYAVGHPIYVPNGVVVTGGELKRDIDGNVISDTRTYKRNTTAVDWQQWCQNYPYQAYVSSKENAKFANVFDRSYIKLRRVALTYNFTKLLSKQSPVKGLTATVFGNNLAVWKKVPFVDPDYTGDSNDGGANDPTARYIGMGVNIKF | not soluble |
| MGSDKIHHHHHHMFKPNYHFFPITGWMNDPNGLIFWKGKYHMFYQYNPRKPEWGNICWGHAVSDDLVHWRHLPVALYPDDETHGVFSGSAVEKDGKMFLVYTYYRDPTHNKGEKETQCVAMSENGLDFVKYDGNPVISKPPEEGTHAFRDPKVNRSNGEWRMVLGSGKDEKIGRVLLYTSDDLFHWKYEGVIFEDETTKEIECPDLVRIGEKDILIYSITSTNSVLFSMGELKEGKLNVEKRGLLDHGTDFYAAQTFFGTDRVVVIGWLQSWLRTGLYPTKREGWNGVMSLPRELYVENNELKVKPVDELLALRKRKVFETAKSGTFLLDVKENSYEIVCEFSGEIELRMGNESEEVVITKSRDELIVDTTRSGVSGGEVRKSTVEDEATNRIRAFLDSCSVEFFFNDSIAFSFRIHPENVYNILSVKSNQVKLEVFELENIWL | not soluble |
| MGSDKIHHHHHHMTVLIVTFSNDNESIPLVIKEIEARGEKAFRFDTDRYPTEVKLDIYCGDTERVIITDGEQKLDLSEVSSVWYRRMRYGQKIPDSMDKQYRDASIQECRVTVRGMIASLPGFHFDQMANVDRANNKQLQLKVAKEVGLLTPRTLTSNNPEAVKKFAQDCPQGIITKMLSSFAIYDDQGRENVVFTTPITNDDLENMEGLCFCPMTFQENIPKALELRTTIVGHHVFTAAVDSQSLQGSTYDWRKEGKNLAKNWQPYNLPEDIEKKLLKLMANFGLKYGAIDIIVTPDGRHVFLEVNPVGEFFWMEIYPPYYPISQAIAEILLTHKS | not soluble |
| MFSKSSNRFGTTSIFGDQSIKDEYRNRQRRLSLIGGPISGTSPNRRESLVRELRTVSLHQYTEDPTLAWEMLKEKRPVKPVRQMRLDTPVKPDHVRFVCIGCTHGEQFDISKLPPGDVLLVAGDFTSCGLPNEVHNFNKLLGKLKYSYKVVIGGNHECTFDDTFLKLKQESEPKEMALKQALLSAIHSDSKGGISAKDLLSNAIYLEDNVIELFGITIYGTPWQPKVDNWAFNLSRGQQLLDKWNLIPAALTCF | not soluble |
| MGSDKIHHHHHHMTVNDKKRLAIIGGGPGGLAAARVFSQSLPNFEIEIFVKDYDIGGVWHYPEQKSDGRVMYDHLETNISKKLMQFSGFPFEENVPLYPSRRNIWEYLKAYYKTFIANKDAISIHFSTEVTYLKKKNSQWEITSKDELRTTKSDFDFVIVASGHYSVPKLPTNIAGLDLWFDNKGAFHSKDFKNCEFAREKVVIVVGNGSSGQDIANQLTTVAKKVYNSIKEPASNQLKAKLIETVQTIDSADWKNRSVTLSDGRVLQNIDYIIFATGYYYSFPFIEPSVRLEVLGEGVTGDKHSSVNLHNLWEHMIYVKDPTLSFILTPQLVIPFPLSELQAAIMVEVFCKSLPITTTFDSNACGTHNFPKERTWNTMQNYRNY | not soluble |
| MEIDEGKYECEACGYIYEPEKGDKFAGIPPGTPFVDLSDSFMCPACRSPKNQFKSIKKVIAGFAENQKYG | soluble |
| MGNTATEFDGPYVITPISGQSTAYWICDNRLKTTSIEKLQVNRPEHCGDLPETKLSSEIKQIMPDTYLGIKKVVALSDVHGQYDVLLTLLKKQKIIDSDGNWAFGEGHMVMTGDIFDRGHQVNEVLWFMYQLDQQARDAGGMVHLLMGNHEQMVLGGDLRYVHQRYDIATTLINRPYNKLYSADTEIGQWLRSKNTIIKINDVLYMHGGISSEWISRELTLDKANALYRANVDASKKSLKADDLLNFLFFGNGPTWYRGYFSETFTEAELDTILQHFNVNHIVVGHTSQERVLGLFHNKVIAVDSSIKVGKSGELLLLENNRLIRGLYDGTRETLQENSLNQ | soluble |
| SNATIYRMVDLPVIQPRLCTHARWPAPVYGLLVDPSLPSNPQWQNGRVHVDGTLLGTTPISGSWVSCFAAEAAYEFQSGTGEVATFTLIEQDGSAYVPGDRAAPLGYPDFSGQLEIEVQTETTKTGDKLKVTTFEMILGPTTNADQAPYQGRVFASVTAAASLDLVDGRVRAVPRSIYGFQDTIPEYNDGLLVPLAPPIGPFLPGEVLLRFRTYMRQIDTADAAAEAIDCALPQEFVSWFASNAFTVQSEALLLRYRNTLTGQLLFECKLYNEGYIALSYSGSGPLTFPTDGIFEVVSWVPRLYQLASVGSLATGRMLKQ | soluble |
| MSSRQGGKMKPLKQKKKQQQDLDPEDIAFKEKQKADAAAKKALMANMKSGKPLVGGGIKKSGKK | soluble |
| MTALTEGAKLFEKEIPYITELEGDVEGMKFIIKGEGTGDATTGTIKAKYICTTGDLPVPWATILSSLSYGVFCFAKYPRHIADFFKSTQPDGYSQDRIISFDNDGQYDVKAKVTYENGTLYNRVTVKGTGFKSNGNILGMRVLYHSPPHAVYILPDRKNGGMKIEYNKAFDVMGGGHQMARHAQFNKPLGAWEEDYPLYHHLTVWTSFGKDPDDDETDHLTIVEVIKAVDLETYR | soluble |
| MGSSTGFHHADHVNYSSNLNKEEILEQLLLSYEGLSDGQVNWVCNLSNASSLIWHAYKSLAVDINWAGFYVTQASEENTLILGPFQGKVACQMIQFGKGVCGTAASTKETQIVPDVNKYPGHIACDGETKSEIVVPIISNDGKTLGVIDIDCLDYEGFDHVDKEFLEKLAKLINKSCVFK | soluble |
| MGSDKIHHHHHHMSKRQFGLIYISSYQARLFIVDLKKLAIIEQLSSVQFVQGGKKFEVYENELPRLTDALIGFKRKIAEYGIDNYKVYGNRQLLDKISARYLADQIKVRTGLEIEWLNGAQIAYYKIIAGMALPQFSELADDEFTYLLSMGSAMLNLTLFKGQHYLSTWNFALGPEEIEEMAAMTRDTPSDPIDIIGDYISRKLVSFKTIEKPTGKARIIIQHVFGRGEQSLRPQEKARVIDLKQFAGVYSDFREAPDQYLMEKYELDTDSLARMKPTIVLINQLVKIIKPHMMTLTQSSAITGLMIQEAARLKYRPDEYSTIVLTATKNIARRYESGGQHINLSNKFALHIFDRLAHAGMVDRRDRQLLEIAARLHDIGNFINFHNHYEHAAYIVGANQIIGLSDRENEMLLSILKHQDITNLNADEREYRHLDPALQVRVAKLAAILRLANSLDASRKQKISKIVVSIKDEKMLIVVTSKRDLTLERWVFEKNVNLAEAVFGMKIAMKQKRGK | not soluble |
| MGHHHHHHSHMPSCVVNPMEHTHAATAALPAAGPVNLPTGISRVPTGYPSDLKPVTWNQHQLAHLQQMCSEASGTPAPGLTGKHAAGRELAGPGFVGKAPAYPQELCLAQSFHLKPPLEKPTPSPPVNGMAAPLAYPNGHYFQPLWNNILPTPNSDSSGSQDLAMPFHGGQPTGAPLDCAAAPGAHYRAGTGGGPVASQNSLMQTVDYLSGDFQQACFREQSLAMLSKAHRAPGNRAPDPTESRSLHIQHPGYR | not soluble |
